Experimental data from article PMC4619345, “Key Amino Acids in the Bacterial (6-4) Photolyase PhrB from Agrobacterium fabrum”.

T1: PhrB Y460F (Agrobacterium fabrum, UniProt A9CH39 1-507, Y460F)
T1 sequence: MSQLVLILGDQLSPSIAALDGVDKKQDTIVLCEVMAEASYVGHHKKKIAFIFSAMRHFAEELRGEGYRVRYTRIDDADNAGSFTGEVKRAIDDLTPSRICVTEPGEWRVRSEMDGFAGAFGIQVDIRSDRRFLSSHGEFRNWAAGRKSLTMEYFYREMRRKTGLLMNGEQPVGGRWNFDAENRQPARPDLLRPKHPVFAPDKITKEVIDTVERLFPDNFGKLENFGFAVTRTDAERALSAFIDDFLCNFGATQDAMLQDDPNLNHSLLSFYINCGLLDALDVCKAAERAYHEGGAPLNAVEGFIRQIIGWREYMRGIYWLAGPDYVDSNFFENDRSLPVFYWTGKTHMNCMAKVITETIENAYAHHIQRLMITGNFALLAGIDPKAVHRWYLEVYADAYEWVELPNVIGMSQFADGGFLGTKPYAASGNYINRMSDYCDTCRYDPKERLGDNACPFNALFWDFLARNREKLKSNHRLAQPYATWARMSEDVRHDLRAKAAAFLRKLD

T2: PhrB Y430F (Agrobacterium fabrum, UniProt A9CH39 1-507, Y430F)
T2 sequence: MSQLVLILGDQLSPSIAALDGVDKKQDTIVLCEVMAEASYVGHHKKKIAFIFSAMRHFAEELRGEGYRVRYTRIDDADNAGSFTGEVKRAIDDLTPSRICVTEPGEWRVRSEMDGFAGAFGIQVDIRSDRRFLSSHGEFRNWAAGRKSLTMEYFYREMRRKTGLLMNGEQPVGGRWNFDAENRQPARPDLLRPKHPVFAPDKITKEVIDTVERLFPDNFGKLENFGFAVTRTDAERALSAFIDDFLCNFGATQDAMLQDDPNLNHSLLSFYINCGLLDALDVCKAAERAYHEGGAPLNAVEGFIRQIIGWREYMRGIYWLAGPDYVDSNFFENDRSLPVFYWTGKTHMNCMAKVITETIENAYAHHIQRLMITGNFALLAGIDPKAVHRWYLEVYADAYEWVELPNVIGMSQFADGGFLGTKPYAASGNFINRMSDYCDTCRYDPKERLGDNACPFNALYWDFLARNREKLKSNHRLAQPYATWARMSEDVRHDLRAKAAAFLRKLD

T3: PhrB Y424F (Agrobacterium fabrum, UniProt A9CH39 1-507, Y424F)
T3 sequence: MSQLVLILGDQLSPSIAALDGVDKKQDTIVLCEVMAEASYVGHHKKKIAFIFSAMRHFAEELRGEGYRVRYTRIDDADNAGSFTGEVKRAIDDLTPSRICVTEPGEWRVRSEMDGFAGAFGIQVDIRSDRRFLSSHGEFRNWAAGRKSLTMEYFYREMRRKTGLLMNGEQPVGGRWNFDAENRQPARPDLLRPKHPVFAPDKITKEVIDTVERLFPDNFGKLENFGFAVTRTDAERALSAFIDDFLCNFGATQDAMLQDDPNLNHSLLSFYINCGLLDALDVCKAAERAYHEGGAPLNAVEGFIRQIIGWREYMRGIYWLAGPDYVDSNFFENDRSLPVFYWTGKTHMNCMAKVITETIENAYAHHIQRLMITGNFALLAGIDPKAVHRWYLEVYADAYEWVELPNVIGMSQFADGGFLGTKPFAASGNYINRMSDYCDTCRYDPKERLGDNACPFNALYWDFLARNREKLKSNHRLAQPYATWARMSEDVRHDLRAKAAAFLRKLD

T4: PhrB (Agrobacterium fabrum, UniProt A9CH39 1-507)
T4 sequence: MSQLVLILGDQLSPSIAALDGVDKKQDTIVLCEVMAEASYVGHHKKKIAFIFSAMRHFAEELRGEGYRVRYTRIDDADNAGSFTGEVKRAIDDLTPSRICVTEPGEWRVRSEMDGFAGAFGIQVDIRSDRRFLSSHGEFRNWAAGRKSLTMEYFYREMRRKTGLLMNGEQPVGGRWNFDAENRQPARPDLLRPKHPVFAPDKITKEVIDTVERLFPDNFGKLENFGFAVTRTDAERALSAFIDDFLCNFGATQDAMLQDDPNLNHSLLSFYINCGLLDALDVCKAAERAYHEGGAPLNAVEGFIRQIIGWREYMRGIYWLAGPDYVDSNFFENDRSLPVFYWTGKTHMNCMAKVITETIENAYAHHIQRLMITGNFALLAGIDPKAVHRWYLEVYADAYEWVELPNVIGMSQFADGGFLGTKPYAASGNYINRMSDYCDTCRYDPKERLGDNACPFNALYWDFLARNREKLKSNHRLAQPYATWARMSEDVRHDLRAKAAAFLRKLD


Assays:
Conditions in all cases: protein: recombinant; tags: C-terminal poly-His (pET21); label: 5' 32P; single strand
PhrB Y460F = molecular target: T1, PhrB Y460F; experiment: EMSA; reduced FAD, darkness; […] (buffer 1: 50 mM Tris-HCl pH 7.0, 1 mM EDTA, 100 mM NaCl, 5% glycerol, 20 mM DTT); or buffer 2: pH 7.5, 10 mM DTT; […]
PhrB Y430F = molecular target: T2, PhrB Y430F; experiment: as above
PhrB Y424F = molecular target: T3, PhrB Y424F; experiment: as above
PhrB = molecular target: T4, PhrB; experiment: EMSA; reduced FAD, darkness; EMSA in repair buffer (buffer 1: 50 mM Tris-HCl pH 7.0, 1 mM EDTA, 100 mM NaCl, 5% glycerol, 20 mM DTT; or buffer 2: pH 7.5, 10 mM DTT; which one not stated), 28 nM DNA, 10% TBE-PAGE at 4 C in darkness

| Binder | Kd (PhrB Y460F) | Kd (PhrB Y430F) | Kd (PhrB Y424F) | Kd (PhrB) |
| --- | --- | --- | --- | --- |
| CATAGGTTGGCATA (ssDNA) [EMSA_1 undamaged] | 25 ± 3 µM | 27 ± 2 µM | 28 ± 3 µM | 25 ± 3 µM |
| CATAGGTTGGCATA (ssDNA, (6-4) photoproduct at T7-T8 (the only TT; 254 nm UV, HPLC purified)) [EMSA_1 (6-4)TT photoproduct] | 0.025 ± 0.003 µM | 0.027 ± 0.003 µM | 18 ± 2 µM | 0.013 ± 0.002 µM |
